The record followed here is the Human Domainome abundance scans (Beltran et al. 2025).

B1: Transcription factor SOX-11, residues 50 to 117; numbered along this chain, P35716 (parent)
chain: KRPMNAFMVWSKIERRKIMEQSPDMHNAEISKRLGKRWKMLKDSEKIPFIREAERLRLKHMADYPDYK

± gives the uncertainty stated by the source.

This series covers variants of B1. The series is described as follows: abundance fitness (aPCA) (normalised: wild type 0, dead -1); higher = more abundant; growth selection in yeast, the domain comes from the species named. The following applies: Homo sapiens.
For the variant I13F, the abundance fitness is -0.263 ± 0.059.
As for I13G, the abundance fitness was -0.206 ± 0.059.
As to I13L, the abundance fitness is -0.237 ± 0.061.
For the variant I13Q, the abundance fitness is -0.06 ± 0.14.
For I13T the value was -0.164 ± 0.064; for I13N, -0.372 ± 0.059.
I13M: the abundance fitness is -0.106 ± 0.098.
For the variant I13H, the abundance fitness was -0.153 ± 0.078.
On to I13S, for which the abundance fitness is -0.406 ± 0.056.
For I13K the value was -0.717 ± 0.23; for I13V, -0.128 ± 0.054; for I13W, -0.684 ± 0.15.
As to I13P, the abundance fitness is -0.646 ± 0.11.
Turning to I13A, the abundance fitness is -0.135 ± 0.068.
For I13R, the abundance fitness was -0.446 ± 0.062.
For the variant I13E, the abundance fitness is -0.077 ± 0.14.
For the variant I13C, the abundance fitness was -0.407 ± 0.067.
In the case of S11R, the abundance fitness was -0.767 ± 0.21.
In the case of S11G, the abundance fitness was -0.283 ± 0.12.
For S11I the value was -1.19 ± 0.27; for S11D, -1.11 ± 0.25.
On to S11N, for which the abundance fitness was -0.399 ± 0.14.
Turning to S11H, the abundance fitness was -1.37 ± 0.45.
Turning to S11C, the abundance fitness is -0.4 ± 0.1.
S11F: the abundance fitness was -0.471 ± 0.096.
Take S11V: the abundance fitness is -0.597 ± 0.15.
Turning to S11T, the abundance fitness is -0.602 ± 0.2.
For S11L the value was -0.857 ± 0.18; for S11P, -0.599 ± 0.2; for S11Y, -0.267 ± 0.098.
Take R15N: the abundance fitness was -0.527 ± 0.1.
For R15A the value was -0.217 ± 0.091; for R15F, -0.601 ± 0.1; for R15E, 0.101 ± 0.17.
Turning to R15P, the abundance fitness is -1.1 ± 0.33.
As to R15K, the abundance fitness is -0.151 ± 0.15.
For R15I, the abundance fitness is -0.267 ± 0.072.
As to R15Q, the abundance fitness is -0.108 ± 0.18.
On to R15T, for which the abundance fitness was -0.073 ± 0.085.
Consider R15V, for which the abundance fitness is -0.397 ± 0.077.
In the case of R15M, the abundance fitness is -0.142 ± 0.2.
Take R15S: the abundance fitness was -0.154 ± 0.057.
With R15L, the abundance fitness is -0.445 ± 0.092.
For the variant R15G, the abundance fitness is -0.397 ± 0.065.
For R15D the value was -1.11 ± 0.21.
With R15Y, the abundance fitness was -0.081 ± 0.07.
R15C: the abundance fitness is -0.384 ± 0.076.
For E14L the value was -1.05 ± 0.14.
Regarding E14S, the abundance fitness was -0.488 ± 0.067.
As to E14A, the abundance fitness is -0.615 ± 0.076.
E14T: the abundance fitness is -1.16 ± 0.2.
For E14P the value was -0.739 ± 0.22; for E14D, -0.861 ± 0.12.
For E14G the value was -0.771 ± 0.089; for E14F, -0.645 ± 0.088; for E14N, -0.338 ± 0.089.
For E14H the value was -0.577 ± 0.13; for E14C, -0.533 ± 0.11; for E14W, -0.734 ± 0.45.
In the case of E14Q, the abundance fitness is -0.247 ± 0.19.
Take E14Y: the abundance fitness was -0.696 ± 0.11.
For the variant E14V, the abundance fitness is -0.895 ± 0.084.
For the variant E14M, the abundance fitness was -0.352 ± 0.17.
Take E14I: the abundance fitness is -0.722 ± 0.11.
Take E14K: the abundance fitness is -0.953 ± 0.41.
Consider F7T, for which the abundance fitness was -0.839 ± 0.12.
For F7C the value was -0.534 ± 0.098; for F7Y, -0.203 ± 0.059.
For the variant F7K, the abundance fitness was -0.887 ± 0.21.
For F7I the value was -0.795 ± 0.1.
Turning to F7Q, the abundance fitness is -0.476 ± 0.21.
For F7E the value was -0.689 ± 0.32; for F7R, -0.478 ± 0.082.
For F7D the value was -0.848 ± 0.13.
For the variant F7W, the abundance fitness is -0.018 ± 0.17.
For F7G the value was -0.765 ± 0.12; for F7V, -1.03 ± 0.14; for F7H, -0.879 ± 0.12.
Turning to F7L, the abundance fitness is -0.958 ± 0.12.
With F7P, the abundance fitness was -0.967 ± 0.16.
For F7N the value was -0.795 ± 0.09; for K17A, -0.484 ± 0.096; for K17T, -0.458 ± 0.093.
Take K17V: the abundance fitness was -0.6 ± 0.085.
Consider K17L, for which the abundance fitness was -0.373 ± 0.078.
Take K17P: the abundance fitness was -0.566 ± 0.13.
For K17W the value was -1.17 ± 0.34; for K17G, -0.756 ± 0.1.
For K17C the value was -0.527 ± 0.075.
As for K17N, the abundance fitness is -0.407 ± 0.061.
For K17M the value was -0.533 ± 0.21; for K17S, -0.518 ± 0.067; for K17I, -0.403 ± 0.065.
For K17Y the value was -0.564 ± 0.075.
For K17Q, the abundance fitness was -0.199 ± 0.39.
On to K17H, for which the abundance fitness is -0.47 ± 0.08.
K17F: the abundance fitness is -0.531 ± 0.065.
For N27A the value was 0.177 ± 0.064; for M19Q, -0.202 ± 0.15; for M19R, -0.24 ± 0.063.
On to M19W, for which the abundance fitness is -0.762 ± 0.19.
For M19K the value was 0.021 ± 0.15; for M19D, -0.649 ± 0.1.
On to M19E, for which the abundance fitness was -0.069 ± 0.16.
Take M19V: the abundance fitness was -0.042 ± 0.052.
As for M19G, the abundance fitness is -0.435 ± 0.076.
For M19S the value was -0.264 ± 0.056; for M19P, -0.769 ± 0.14.
M19H: the abundance fitness was -0.187 ± 0.079.
For M19N the value was -0.426 ± 0.071; for M19T, -0.103 ± 0.064.
As for M19I, the abundance fitness is -0.062 ± 0.057.
For the variant M19C, the abundance fitness was -0.29 ± 0.075.
For H26F the value was -0.497 ± 0.062; for H26A, 0.158 ± 0.062; for H26Y, -0.368 ± 0.059.
For H26C the value was 0.226 ± 0.047; for H26E, 0.383 ± 0.14; for H26L, -0.146 ± 0.054.
Turning to H26V, the abundance fitness was -0.283 ± 0.057.
For H26K the value was 0.195 ± 0.1; for H26Q, 0.064 ± 0.095.
H26W: the abundance fitness was -0.388 ± 0.2.
Regarding H26I, the abundance fitness is -0.266 ± 0.059.
For H26T, the abundance fitness was 0.453 ± 0.058.
For H26D, the abundance fitness is 0.414 ± 0.055.
In the case of H26M, the abundance fitness is -0.194 ± 0.15.
With H26R, the abundance fitness is -0.106 ± 0.057.
As for H26N, the abundance fitness worked out at 0.277 ± 0.052.
Turning to H26S, the abundance fitness turned out to be 0.406 ± 0.041.
For H26P the value was 0.205 ± 0.065; for H26G, 0.22 ± 0.047; for M8E, 0.299 ± 0.15.
On to M8C, for which the abundance fitness was -0.168 ± 0.061.
For M8K the value was -0.394 ± 0.16; for M8W, -0.446 ± 0.18.
Consider M8R, for which the abundance fitness is -0.239 ± 0.069.
Turning to M8H, the abundance fitness is -0.033 ± 0.059.
As to M8G, the abundance fitness was -0.079 ± 0.067.
Take M8N: the abundance fitness was -0.111 ± 0.054.
For M8Y the value was -0.089 ± 0.051.
For M8P the value was -0.609 ± 0.09; for M8T, 0.165 ± 0.062; for M8I, -0.117 ± 0.047.
For M8V the value was -0.131 ± 0.062; for M8A, 0.101 ± 0.068.
As for M8F, the abundance fitness was -0.14 ± 0.051.
With M8Q, the abundance fitness was determined as 0.324 ± 0.083.
M8D: the abundance fitness came out at 0.456 ± 0.069.
Take M8L: the abundance fitness is -0.039 ± 0.047.
Take R16W: the abundance fitness was -0.956 ± 0.4.
With R16D, the abundance fitness is -0.036 ± 0.075.
Consider R16Y, for which the abundance fitness is -0.372 ± 0.064.
Turning to R16V, the abundance fitness amounted to 0 ± 0.054.
For R16G, the abundance fitness was -0.105 ± 0.056.
Turning to R16T, the abundance fitness is -0.212 ± 0.075.
With R16M, the abundance fitness is -0.667 ± 0.21.
R16S: the abundance fitness was -0.134 ± 0.049.
Consider R16H, for which the abundance fitness was -0.001 ± 0.069.
Take R16E: the abundance fitness was 0.082 ± 0.15.
On to R16Q, for which the abundance fitness turned out to be 0.199 ± 0.21.
R16L: the abundance fitness was -0.015 ± 0.065.
Regarding R16I, the abundance fitness stood at 0.002 ± 0.054.
On to R16F, for which the abundance fitness is -0.319 ± 0.058.
On to R16A, for which the abundance fitness was determined as 0.218 ± 0.062.
Regarding R16P, the abundance fitness was -0.089 ± 0.1.
As for V9T, the abundance fitness is -0.777 ± 0.12.
